Patent US20060140983A1

Target: MHC class I (HLA-ABC) on Me275 and Me290 melanoma cells
Test: cell-based or functional assay

inhibition of specific lysis (4 hour 51Cr release assay): > 60%
specific lysis with W6/32 mAb (4 hour 51Cr release assay, E:T ratio 15:1): 4 % lysis
Substance: purified mouse anti-human HLA-ABC mAb (clone W6/32, DAKO) (antibody)
